The values below come from patent publication US20240392020A1 (JIANGSU HENGRUI PHARMACEUTICALS, published 2024).

Where a chain is given by its changes, count along the chain named.

T1: B7H3 on the recombinant cell line CT26-B7H3 (UniProt Q5ZPR3 29-534, limits assumed)
T1 construct: whole, on cells
T1 sequence (looked up): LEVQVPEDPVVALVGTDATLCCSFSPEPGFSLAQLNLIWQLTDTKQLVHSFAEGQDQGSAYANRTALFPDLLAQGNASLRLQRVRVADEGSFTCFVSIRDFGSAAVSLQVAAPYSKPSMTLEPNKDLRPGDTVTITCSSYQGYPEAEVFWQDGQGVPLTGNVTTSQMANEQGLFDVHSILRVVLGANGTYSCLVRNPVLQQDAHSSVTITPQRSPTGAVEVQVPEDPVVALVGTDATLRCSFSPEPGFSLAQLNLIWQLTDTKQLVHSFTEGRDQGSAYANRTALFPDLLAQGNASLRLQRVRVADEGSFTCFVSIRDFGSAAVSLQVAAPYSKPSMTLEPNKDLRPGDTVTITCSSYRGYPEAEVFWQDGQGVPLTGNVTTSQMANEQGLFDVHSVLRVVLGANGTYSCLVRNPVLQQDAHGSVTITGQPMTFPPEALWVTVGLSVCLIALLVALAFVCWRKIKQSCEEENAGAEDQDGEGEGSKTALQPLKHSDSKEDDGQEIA

B1: H2 (antibody)
heavy: not shown
light: DIQMTQSPSSVSASVGDRVTITCRASQDIANYLSWYQQKPGKSPKLLIYGTSNLEVGVPSRFSGSRSGTDFTLTISSLQPEDFATYYCLQDKEFPRTFGGGTKVEIKFDPVYKVKPNPPHNLSVINSEELSSILKLTWTNPSIKSVIILKYNIQYRTKDASTWSQIPPEDTASTRSSFTVQDLKPFTEYVFRIRCMKEDGKGYWSDWSEEASGIT
B2: H1 (antibody)
heavy: not shown
light: DIQMTQSPSSVSASVGDRVTITCRASQDIANYLSWYQQKPGKSPKLLIYGTSNLEVGVPSRFSGSRSGTDFTLTISSLQPEDFATYYCLQDKEFPRTFGGGTKVEIKGILQPDPPANITVTAVARNPRWLSVTWQDPHSWNSSFYRLRFELRYRAERSKTFTTWMVKDLQHHCVIHDAWSGLRHVVQLRAQEEFGQGEWSEWSPEAMGTPW
B3: H0 (antibody, human IgG1, kappa)
heavy: not shown
light: DIQMTQSPSSVSASVGDRVTITCRASQDIANYLSWYQQKPGKSPKLLIYGTSNLEVGVPSRFSGSRSGTDFTLTISSLQPEDFATYYCLQDKEFPRTFGGGTKVEIKRTVAAPSVFIFPPSDEQLKSGTASVVCLLNNFYPREAKVQWKVDNALQSGNSQESVTEQDSKDSTYSLSSTLTLSKADYEKHKVYACEVTHQGLSSPVTKSFNRGEC
B4: V0 (antibody, human IgG1, lambda)
heavy: not shown
light: QIVLTQSPAILSASPGEKVTMTCRASSSVSYMNWYQQKPGSSPKPWIYATSNLASGVPARFSVSVSGTSHSLTISRVEAEDAATYYCQQWSSNPLTFGAGTKLELKGQPKAAPSVTLFPPSSEELQANKATLVCLISDFYPGAVTVAWKADSSPVKAGVETTTPSKQSNNKYAASSYLSLTPEQWKSHRSYSCQVTHEGSTVEKTVAPTECS
B5: F4 (antibody)
heavy: not shown
light: DTVVTQEPSFSVSPGGTVTLTCGLSSGSVSTSHYPSWYQQTPGQAPRMLIYNTNTRSSGVPDRFSGSILGNKAALTITGAQADDESDYYCAIHVDRDIWVFGGGTKLTVLQGSPPCFLRFPRPVRVVSGAEAELKCVVLGEPPPVVVWEKGGQQLAASERLSFPADGAEHGLLLTAALPTDAGVYVCRARNAAGEAYAAAAVTVLEPP
B6: V4 (antibody)
heavy: not shown
light: QIVLTQSPAILSASPGEKVTMTCRASSSVSYMNWYQQKPGSSPKPWIYATSNLASGVPARFSVSVSGTSHSLTISRVEAEDAATYYCQQWSSNPLTFGAGTKLELKQGSPPCFLRFPRPVRVVSGAEAELKCVVLGEPPPVVVWEKGGQQLAASERLSFPADGAEHGLLLTAALPTDAGVYVCRARNAAGEAYAAAAVTVLEPP
B7: F2 (antibody)
heavy: not shown
light: DTVVTQEPSFSVSPGGTVTLTCGLSSGSVSTSHYPSWYQQTPGQAPRMLIYNTNTRSSGVPDRFSGSILGNKAALTITGAQADDESDYYCAIHVDRDIWVFGGGTKLTVLFDPVYKVKPNPPHNLSVINSEELSSILKLTWTNPSIKSVIILKYNIQYRTKDASTWSQIPPEDTASTRSSFTVQDLKPFTEYVFRIRCMKEDGKGYWSDWSEEASGIT
B8: S3 (antibody)
heavy: not shown
light: DIQMTQSPASLSASVGDRVTITCRASENIFSYLAWYQQKPGKSPKLLVYNTRTLAEGVPSRFSGSGSGTDFSLTISSLQPEDFATYYCQHHYGTPFTFGSGTKLEIKQGSPPCFLRFPRPVRVVSGAEAELKCVVLGEPPPVVVWEKGGQQLAASERLSFPADGAEHGLLLTAALPTDAGVYVCRARNAAGEAYAAAAVTVLEPP
B9: V1 (antibody)
heavy: not shown
light: QIVLTQSPAILSASPGEKVTMTCRASSSVSYMNWYQQKPGSSPKPWIYATSNLASGVPARFSVSVSGTSHSLTISRVEAEDAATYYCQQWSSNPLTFGAGTKLELKGILQPDPPANITVTAVARNPRWLSVTWQDPHSWNSSFYRLRFELRYRAERSKTFTTWMVKDLQHHCVIHDAWSGLRHVVQLRAQEEFGQGEWSEWSPEAMGTPW
B10: V6 (antibody)
heavy: not shown
light: QIVLTQSPAILSASPGEKVTMTCRASSSVSYMNWYQQKPGSSPKPWIYATSNLASGVPARFSVSVSGTSHSLTISRVEAEDAATYYCQQWSSNPLTFGAGTKLELKGIPPKIEALPSDISIDEGKVLTVACAFTGEPTPEVTWSCGGRKIHSQEQGRFHIENTDDLTTLIIMDVQKQDGGLYTLSLGNEFGSDSATVNIHIRSI
B11: F3 (antibody)
heavy: not shown
light: DTVVTQEPSFSVSPGGTVTLTCGLSSGSVSTSHYPSWYQQTPGQAPRMLIYNTNTRSSGVPDRFSGSILGNKAALTITGAQADDESDYYCAIHVDRDIWVFGGGTKLTVLSGAPRFLTRPKAFVVSVGKDATLSCQIVGNPTPQVSWEKDQQPVAAGARFRLAQDGDLYRLTILDLALGDSGQYVCRARNAIGEAFAAVGLQVDAEA
B12: S4 (antibody)
heavy: not shown
light: DIQMTQSPASLSASVGDRVTITCRASENIFSYLAWYQQKPGKSPKLLVYNTRTLAEGVPSRFSGSGSGTDFSLTISSLQPEDFATYYCQHHYGTPFTFGSGTKLEIKGIPPKIEALPSDISIDEGKVLTVACAFTGEPTPEVTWSCGGRKIHSQEQGRFHIENTDDLTTLIIMDVQKQDGGLYTLSLGNEFGSDSATVNIHIRSI
B13: V3 (antibody)
heavy: not shown
light: QIVLTQSPAILSASPGEKVTMTCRASSSVSYMNWYQQKPGSSPKPWIYATSNLASGVPARFSVSVSGTSHSLTISRVEAEDAATYYCQQWSSNPLTFGAGTKLELKSGAPRFLTRPKAFVVSVGKDATLSCQIVGNPTPQVSWEKDQQPVAAGARFRLAQDGDLYRLTILDLALGDSGQYVCRARNAIGEAFAAVGLQVDAEA
B14: S0 (antibody, human IgG1, kappa)
heavy: not shown
light: DIQMTQSPASLSASVGDRVTITCRASENIFSYLAWYQQKPGKSPKLLVYNTRTLAEGVPSRFSGSGSGTDFSLTISSLQPEDFATYYCQHHYGTPFTFGSGTKLEIKRTVAAPSVFIFPPSDEQLKSGTASVVCLLNNFYPREAKVQWKVDNALQSGNSQESVTEQDSKDSTYSLSSTLTLSKADYEKHKVYACEVTHQGLSSPVTKSFNRGEC
notes: also called SO
B15: F1 (antibody)
heavy: not shown
light: DTVVTQEPSFSVSPGGTVTLTCGLSSGSVSTSHYPSWYQQTPGQAPRMLIYNTNTRSSGVPDRFSGSILGNKAALTITGAQADDESDYYCAIHVDRDIWVFGGGTKLTVLGILQPDPPANITVTAVARNPRWLSVTWQDPHSWNSSFYRLRFELRYRAERSKTFTTWMVKDLQHHCVIHDAWSGLRHVVQLRAQEEFGQGEWSEWSPEAMGTPW
B16: F11 (antibody)
heavy: not shown
light: B5 light with C116E, V184C
B17: F15 (antibody)
heavy: not shown
light: B5 light with C116E, C136S, C187S, G194C
B18: F14 (antibody)
heavy: not shown
light: B5 light with C116E, C136S, V184C, C187S
B19: F13 (antibody)
heavy: not shown
light: B5 light with C116E, A196C
B20: F12 (antibody)
heavy: not shown
light: B5 light with C116E, G194C
B21: F8 (antibody)
heavy: not shown
light: B11 light with C135S, C186S, A198C
B22: F10 (antibody)
heavy: not shown
light: B11 light with R119C, C135S, C186S
B23: F5 (antibody)
heavy: not shown
light: B11 light with A198C
B24: F7 (antibody)
heavy: not shown
light: B11 light with R119C
B25: F9 (antibody)
heavy: not shown
light: B11 light with A113C, C135S, C186S
B26: F6 (antibody)
heavy: not shown
light: B11 light with A113C

One assay has as its target T2, hIL-5 (human, UniProt P05113 20-134).
T2 construct: bought
In words: ELISA.
Method: For an antibody targeting a soluble protein, the binding activity of the antibody against the soluble protein was detected by ELISA. […] After the blocking was completed, the blocking solution was discarded; and the plate was washed 3 times with a PBST buffer (pH 7.4, PBS containing 0.1% tween-20). 100 μL of the antibody solution diluted in a gradient was added to each well, and the mixture was incubated at 37° C. for 1 h. After the incubation was completed, the plate was washed 3 times with PBST. […] The plate was washed 3 times with PBST. […] The reaction was stopped by adding 50 μL of 1 M H₂SO₄ to each well. The absorbance values at 450 nm were read on a microplate reader, the binding curves of the antibodies to an antigen were fitted with software, and the EC₅₀ values were calculated.
In turn, B1 gave an EC50 of 24.4 nM. In turn, B2 yielded an EC50 of 19.4 nM. In the case of B3, the EC50 is 1.74 nM.

In another assay the target is T1, B7H3 on the recombinant cell line …. In words: FACS, CT26-B7H3 cells.
Turning to B4, the EC50 was determined as 1.8 nM. Turning to B5, the EC50 turned out to be 2.17 nM. For the molecule B6, the EC50 stood at 2.9 nM. Take B7: the EC50 was found to be 59.3 nM.

With B8, the EC50 worked out at 3.5 nM.

On to B9, for which the EC50 came to 38.4 nM. Same read-out and setting: to B10 belongs 4.7 nM.

B11: the EC50 came to 2.83 nM. With B12, the EC50 stood at 1.96 nM. Consider B13, for which the EC50 turned out to be 3.6 nM. Turning to B14, the EC50 amounted to 1.01 nM. Consider B15, for which the EC50 turned out to be 71.6 nM.

For a further assay the target is unchanged. In words: FACS, CT26-B7H3 cells. This is another data set of the same source.
With B16, the EC50 stood at 6.15 nM.

On to B17, for which the EC50 came out at 4.44 nM. On the same count and under the same terms, to B5 belongs 3.01 nM.

Take B18: the EC50 is 5.15 nM. With B19, the EC50 was 6.08 nM. Consider B20, for which the EC50 came to 8.19 nM.

Turning to B21, the EC50 worked out at 3.14 nM. As for B22, the EC50 is 3.94 nM. Regarding B11, the EC50 turned out to be 2.64 nM. In the case of B23, the EC50 was determined as 1.21 nM. For B24, the EC50 was 3.38 nM. As to B25, the EC50 was 3.52 nM. Regarding B26, the EC50 stood at 2.71 nM.
